Experimental data: a protein production outcome set (Wang et al. 2014)

Assay: label from the status in PepcDB records

Sequence | protein production
MQYVMSIIGILVVLGLCFALSNNKSKINFRAIAIMIGFQILIGWFMFGTKIGQQIIIFIGKVFNKLIKLGTTGVDFLFNGIQRDFVFFLNVLLIIVFFSALLSIFSYLGVLPFIVRVVGGAISKITGLPRVESFHAVNSVFFGSSEALIVIKNDLQHFNKNRMFIICCSAMSSVSASVTASYVMMLDAKYVLAALPLNLFSSLIVCSLLTPVDTKKEDEVIQKFDRTLFGDSFIGAMINGALDGLKVAGIVAALMIAFIGVMEVVNYVISAASGAMGHAVTLQQIFGYVLAPFAFLMGIPAQDIIPAGGIMGTKIVLNEFVAILDLKGVAATLSPRTVGIVTVFLISFASISQIGAIVGTIRALSEKQGSVVSKFGWKMLFASTLASILSATIAGLFI | failed
MRADALKRREHIITTTCNLYRTHHHDSLTMENIAEQAGVGVATLYRNFPDRFTLDMACAQYLFNVVISLQLQAISTFPTDPEGVWTSFNQLLFDRGLGSLVPALAPESLDDLPDEVSALRRTTEKNTTTLINLAKQHGLVHHDIAPGTYIVGLITISRPPITALATISENSHKALLGLYLSGLKHGMMANIGEHDGKS | not failed
MRADTRDFRALFLGDAPLLDTRAPVEFAKGAFPGAVNLPLMSDAERHKVGLCYKQQGQDAAIALGHRLVSGAVKAERVAAWAAFAQAHPEGYLYCFRGGLRSQISQAWLREEAGIAYPRVIGGYKAMRGFLLETIEQAIAEC | failed
MRAFLRVVETGNFTRASASLNMPKATVTNLIQGLEAHLRTKLLNRTTRRVLVTPDGALYYERAARLLSDLDELDGSLSTAQSLPKGRLRVETASAFANLVIIPALPEFHKKYPDIQIDLGVSDRTIDYLAENVDCAIRAGTLTDQSLIARRITEMKFVACASRDFLERHPVPQHPSDLEKNCYVVGYFLPKTGQQMPFHFRRGNEEIEVSGRYTVAANESTTYLAAARAGLGVIQAPLFMVREDLRNGTMVPVLPDWQVEPMPIYLVYPPNRHLSSRLRVFADWVVKVMAQSQNGE | not failed
MRAFYSTTEEISALFAKQQEQLKTMQRTLEDEDNCDNTSLDIDLNPINRSPNRANTQGDKRATSHLNFAARASSSTSGQRSTRNEVVDTSCEDADATQKHDCEIMSQEGQNTQEAEYPSSDKVAKGGFGSDIEGIGTAPTSGTDPVGTEQVNETQSPGNDYERNDHLRKSIILAGDTMQIDCETQVHESVQIEGAVLLLRNPNDRRDTQDIEGVGTIGTSDLLASEVAGSWANSTNPSVHGENETERSREDEESQTQKIKEVTIVQDSAGQIGESQTKPTSPGVLVTNKDDAERGVINEPVGITDQGKIKHGTRSDSETESCSDSDDDHEKEKHNPVSDSDTEGSDMNDDKGSLSSDPDTERSHEVDGDQKKQVDTMDEDDKAT | failed
MRAGDGKIRVPADLDAVTATGEEDHSEIDGAAVDRIWRAARHWYRAGMHPAIQLCIRHHGRVVLNRAIGHGWGNAPTDEADAEKIPVTTDTPFCVYSAAKAITATVVHMLVERGHFALDDRVCEYLPSYTSHGKHRTTIRHVLTHSAGVPFPTGPRPDVRRADDHEYAVERLGELRPLYRPGLVHIYHALTWGPLMREIVYAATGKEIREILATEILDPLGFRWTNFGVAERDVPLVAPSHATGRQLPPVIAAVFRKAIGGTVHEIIPYTNTPFFLSTILPSSNTVSTANELSRFMEILRRGGELDGVRVLSPETLRGAVTECRRLRPDFATGLMPLRWGTGFMLGSAKYGPFGRNAPAAFGHLGLVNIAVWADPERALSGGLISSGKPGRDPEAGRYGALLNAITAEIPRASSG | failed
MRAHGRRVSKRQPDSPGRLRGAFGSRLHLSPLTRLPARPIWRPRAGCAVPLAGPGCDPAGFMLKSPSFPFSAPAMLRHLPMTYCAIDFGTSNSAVALPDGDGMRLAPVEGDHLTLPTAIFFNNDEQTVEYGRAALASYIDGFDGRLMRSMKSILGSPLAETTTDLGDGSAMAYTEIIARFLTHLKRKAEARAGAPIGRAVLGRPVFFVDEDPRADRLAQDQLEAAARSVGFTDVHFQYEPIAAAFDYESRQQAERLVLVADIGGGTSDFSLVRVGPERMARLERKDDVLAHHGVHVAGTDYDRRVELAAILPAFGYRALDPEGRELPNRIYFDLATWHLINTVYTPKRLGELKLMKHLYQDGRQHDRLMSVVEQRLGHALMARAEEAKIGVAAGGETMIDLNDVEEDLQIAFDAERLVEASVDDTARIVDAARETVRLAGVAPRDLGALYFTGGSTGLAFLSGALAGAFPDAQPVFGDRLASVATGLGIHAQRLFG | failed
MRAQMKQYNCHEGALPFTKSYLLRPLFNAFLMSPKPFHTTEACIGCKKCEKVCPVGNITVTDRPVWGGNCTQCLACYHVCPVHAVEYLEHHHHHH | failed
MRARHASCMHPPSLSADPVALMTDTPASSETSASGWRRALPVIVSLAILAMALHALSSQFTDHGYRQIRHAFRALGAGQITLTLLLGLSSYVCLVGFDWVGLKRTGKQLHPARVGITAFMAHAVGQTLGFAALTGGAVRLRGYGSVGLTLAEIGQVVLMSTLGFIFGAWVLLGLALMLEPEAAARALPITAQAIRIAGIALLVGYVAMLMLVGRQGREFGIRSHRFWLPDRTTVLGVTALSVVELGLAAAAFYVLLPPDSGTGYFGFIGIWLVAVVAGLISTVPAGLGVFEWSLLELLPHVTPAAVLAAALVYRVTYYIVPLLISVAMAAASGLRVPVRVGASTARSVWKALRPWLPQILALAVFAVGAALVIDGTLPTPAARQEVAPLPLIETSHLLVSLGGMMLLLIGQGLQRRSHSAWMLALGVCLLVPPFALLRGSHISVSLSAALAAVALWAARREFYRQGALLDEAWSWRWLSNLGLVLVATFWLLFFVYSHVEYSNDLWWQFATSANAPRALRAALILCVGVIVFGMARLLRGGRRPMPAADAPTLRTLAPILATSTDTQACLALTGDKAFLLDEQSSGFVMMQRYGGSLISMGDPVGSPEVARALIWRFREEADQMGLRTVFYQVGEKHWQTYLDMGLTLVKLGEEAIVPLEGFTLEGRDRADLRQAWNRGKRGGLSFRMLQPEQVDEVLPRLAEVSDQWMEEKSGEEKGFSLGSFDADYLRRFPVAVAEAEGQIVAFANVWWAPAGGELSVDLMRHSAEAPKGTMDFLFIELFLWGQANGYTRFSLGMAPLSGLAEHRLAGRWNRFASLVARHGERFYGFSGLRRFKSKFDPTWRPRYLVAPGGMHLPAALLDVTRLISADPRRQE | failed
MRCANCGNELKAGSLYCDVCGHPVQIVPDYNEFDDYLDNLVGNDDRRTDGQKTAKPVSDRTIRFDDPVREQLHSAGQWNGQKTDRMSQSVKQQVRQAQTGEQQSQTKQPCEKPQSDGQRAKRAQQKKIIIISAVVCAVAIVILIAAITRNVSRSHDNSFDYQVKQAKAAYSAGNINSAVSYYEKALSIDSDNTDVRFALADIYMSKKDYDAALVLYQEIINIDPKSKEAYKQLISIYESKKDYDAIVALRESAKDASVLKLFADYTVSKPQFSKSSGKYGETMELSIDADSDTKIYYSYDSDDPLTRGERYYSPITLDKEGTYEITAVAVDDRGIKSEVASAKYEIEFEAPDAPEIDPDGGTFGAQTDITITVPENCKVYYTWDSSDPSAASTEYTAPIPVPEGNNVLSVIAIDQNTGKCSDIYRSRFEFYMN | failed
MRDHPADRLQSITVTAFYQEPNVPTHSLSDYTSWIERTWQGQVSFTELVTYAETLNSHPALCAALYRTWLQRNTGVFNSVAWFNLGVILFAENNLIDSIEAFQKALALSPAFPQARINLGLALERQGNAEAAIEQWQAVVENAITPEADQNTGPNQADQIKNLTMALNNIGRLQETRRQYQAATQALEKSLQLDPDQPDAIHHLIFQRQKQCQWPVYAPVGKVTEAVLHEHTSALAMLNISDAPEAQLTAALNYSRRKIPADLPRLSPANGYRHDKIRVAYCSSDFCTHPVAMLTVELFEHHDKNRFETYAFCWSPDDGSTLRQRILSAVDHYIPVHGKSDDEVAQLIRQHEIDILIDLQGQTSGAKTRMLAMRPAPMQITYLGLPATTGLPGIDYVIADRYLIPEEYARFYSEKPLYMPDVYQVSDRKREHSPAPTRKDCGLPARKFVFCSFNNNHKYTLEVFTTWMNILRRVPNSVLWLLADNPWARENLQKQAKAQGIDPKRLVFAERTMPADYLARYLVADLFLDTFPFNAGTTANDALWMGLPVLTMSGRSFASRMAGALLTAADLPELITHDLQTYEDKAVALAADAKARKTMRQKLALAKESGPLFDSLRFTRNLEQQYIALVSELQNPSQHINISAQPEPTKLGEPAQPNPIIATVQEAEALQARGDTQGAIQLYRQWLEHAHSGDEWIAQFNLGVLLRDGGDITGAQQAFQAVLKQKPDFVQARAALGKLPAPVTTESQKHGAIIGPLQTNSPISTKSKEQITQIFSETPKIKLLVEGWRGINHSFALVNQYHLYEWMRSSQLHIYHRDMPLLFSHWETNKNRGNTGLPGTYSQRLAQVQHWSGQTYDACFRIYSPVTLAPDDKHPVSTFLVTELGLDETQIAHFRPNLKAYFNMGGNIVTPSHWSKERIIEAGIPAEHIHLISHGVASNIFHPMHSDERAIHRQRLGFDREAVIFLNVAAPIWNKGLDLLIQAFVQCFHQNPHTRLLIKDQQAVYGISTKDTVLREITLLGESKNESLLNAIRVIPDLNLLQLRELYCIADYYVSPYRAEGFNLPVIEALVCGTPVIVTEGGATQDFCSEKNALFIEAVPYRNVKINDRHVNAYQAPILDSLITHLNVCAQDKPFSESQRLQNAASIAKNFTWAKAADTISRLFTQSNDCNTSTSQITGALHEEPQYCN | failed
MRDLLNDLSEGLSHPDPILRAQIQMQKPLPKRFYKDVTVADVEEGGFTILLDGKPLRTPAKKPLVAPSRALADLLRDEWDAQKEVVNPVVMPVSRHVNTAIDGIASDTQAVFEDILRFSSSDLLCYRAGDPEALVARQTDYWDPVLDWATNVLGARFILVEGVMHRDQPREAIAAFAVTLKKYDTPIALAALHTMTSLTGSAILALALAEGELTLEEAWALAHLDEDWTAEQWGEDEEALERRAVRLIDMRAALNVLESLKSAS | not failed
MRDPRLAPFRAPALAFAALLLVSAASGAVLFVLKLGTTAARVQEFYLGSEARFTAPRTLGGILEVAVPHLVAVPLVLFAVAHLVAFTRALRPRPYAALVRLSFGCALAGALAGLGIRFVAPWLAWVKIGAFVGLEAALLAWAALLVGLFLPDRAEAHARRAAAADGASPQRVPGAPRRD | failed
MRDTRESRLLLVLLVAIAFALITVDIRGGQDSPVDGARQAAATVFGPIENGVSSAVDPVGNAVAAVRDSGSRHDRIAQLEHDNAALKAKLGSDDRNRSRLKQLNKMIRVAGEGQYGIKGAEVIGIGAAQGFSWTVTIDVGANDGIKRDMTVLNGDGLVGRVTTVGPNAATVLLANDPDFTVGTRMESSDELGFASGQGDRPLRVQLLNGKAKVVKGDRLVTFGSQADRPFVPGVPVGVVSRVDPSGGDLTRTVYVTPYVSFTKLDIVGVVVAAPKKDPRDEVLPPKPRPTPTPTVTVTVTPSANASADGQQQQQ | failed
MRDTTWHVPEDDLRAYVQGELAPPRLWSADTHLAACERCRAALAEAGDPVALDAAWERLDAELDAPRPGMFESLLVRAGVADHTARLLTATPVLRRSWLGAVAFLLVMTVGIVLTVDSPALFLALAPLLPLAGVALSYGPVLDPTYEMAVVAPLHGFRLLLIRTLAVLATGLLLNGLATLALPGYGLRALAWLLPALALTGTGLALTPRLGPVLAPALTGGAWIGLLLVAQARTHETLAPFTMAGQGAAAVVAALAAGLLYRTRDRFDSVAARLPFAHLPGGGAV | failed
MRDWPAFLLALLVAFALWYSLQERAPVVERSLKVPLQVVGLGEGRRALGLPREVLLRLRGPAPLLEGRALPVSAYLDLSGAEGEVVREVRVAAPQGVEVLEVVPARVGVVVEVEAQRQIPVEVLAQGAWVLTDPAFVEAVGPESQVEAAVSAVGLDLGDEVVLFPLGPEGPLEGVELRPNRVRVVERREALFLKEVPLSLNPPPGRRLLDYAPKTVRLVGPREALEGLAGVTATLQEALGPGEVEVAVAPDLPPGVHTLGPVRVRVALELEHHHHHH | failed
